The text below walks through data of patent publication US20050260219A1, “Carboxypeptidases B from anopheles gambiae. compositions comprising them, vaccine applications and use as therapeutical targets” (INSTITUT PASTEUR, priority 2004, published 2005).

Values joined by “and” are separate entries in the source; they are usually repeats but may differ in a detail not shown here. Equal entries are not always repeated. Marks after values point to notes of the source that are not given here.

Substrate in series [1]: N=C(N)NCCC[C@H](NC(=O)CNC(=O)c1ccccc1)C(=O)O
As to the kind of experiment: Carboxypeptidase activity assay on recombinant CPBAg1 with di-peptide substrates. It counts as biochemical, Anopheles gambiae. Particulars: other: hydrolysis of Hip-Arg, Michaelis-Menten, 0.02-10 mM substrate; pH 7.2; 25.0 °C. The method, then:
Carboxypeptidase activity was determined using the synthetic di-peptide substrates Hippuryl-Arginine (Hip-Arg), Hippuryl-Lysine (Hip-Lys) as carboxypeptidase B substrates and Hippuryl-Phenylalanine (Hip-Phe) as carboxypeptidase A substrate. All reagents were purchased from Sigma. Activities were assayed in 20 μl E buffer (100 mM NaCl/50 mM Hepes/100 μM ZnCl2 pH 7.2) containing 1 mM Hip-Arg, Hip-Lys or Hip-Phe. The reaction was initiated by adding an equal volume of His-tagged CPBAg1 (5 ng/μl in E buffer), incubated at 25° C. for 10-40 min, and stopped by the addition of 20 μl Ninhydrin reagent (Sigma, Lyon, France). The rate of the reaction was measured by estimating the amount of released amino acids using the ninhydrin procedure (60). One unit of enzyme activity was defined as μmol of amino acids released/min.
Estimation of Km and kcat was carried out after assays over a 500-fold range of Hip-Arg concentration (0.02-10 mM). Each concentration was assayed in triplicate. The kinetic parameters were derived from iterative non-linear least square fits of the Michaelis-Menten equation using the experimental data (61). Confidence limits for the fitted values were determined by 100 Monte Carlo iterations using the experimental standard deviations on individual measurements. […]

In a further series the test system is CPBAg1. As to the kind of experiment: CPBAg1 specific ELISA titers in sera from immunized mice. The series is classed as in vivo. Particulars: Swiss mice. As to the method: Specific antibody titers against CPBAg1 were measured in duplicates for each mice by ELISA three weeks after the first (group 1) and the booster (group 2) immunization. The average reading at O.D. 490 nm of each group was plotted against the reciprocal sera dilution. End points were defined as the highest serial dilutions yielding an absorbance reading at 490 nm greater than 0.5. (Δ) and (□) show antibody titers from group 1 and 2 respectively in sera from immunized mice. (▴) and (▪) show antibody titers from group 1 and 2 respectively in sera from control mice.
Immunizations were performed with a recombinant CPBAg1 protein expressed in insect cells using the baculovirus expression system. Eleven 3- to 4-week-old female Swiss outbred mice (CERJ, Le Genest St-Isle, France) were injected subcutaneously with 20 μg of recombinant CPBAg1 in sterile PBS, emulsified with complete Freund's adjuvant (Sigma). […]
Microtiter plates (Immuno-plate Maxisorp, Nunc) were coated with 50 ng/well of CPBAg1 in PBS, overnight at 4° C., and saturated with 100 μl/well 0.5% gelatine (Sigma) in PBS for 1 h. […] After 10 min. incubation, the reaction was stopped with 50 μl 3N HCl and absorbance was measured at 490 nm using a microplate reader (Molecular Devices). Serum dilutions at an absorbance value of 0.5 were designated as the endpoint of ELISA titers.

The test system of a further series is P. berghei. As to the kind of experiment: Transmission-blocking assays: An. gambiae fed on CPBAg1 immunized, P. berghei infected mice. It counts as in vivo, Plasmodium berghei. The following applies: for Mean no. of oocysts (range): per positive midgut, day 9-11; for % of reduction R: infected mosquitoes fed on immunized versus control mice. As to the method: Immunizations were performed with a recombinant CPBAg1 protein expressed in insect cells using the baculovirus expression system. Eleven 3- to 4-week-old female Swiss outbred mice (CERJ, Le Genest St-Isle, France) were injected subcutaneously with 20 μg of recombinant CPBAg1 in sterile PBS, emulsified with complete Freund's adjuvant (Sigma). Eleven control mice were injected simultaneously with sterile PBS/adjuvant following the same protocol. On day 21 post-immunization, eight immunized mice and eight control mice (group 1) were challenged with P. berghei for transmission blocking assays (see below). The three other immunized mice were boosted with 10 μg of recombinant CPBAg1 formulated in incomplete Freund's adjuvant (Sigma) and the three other control mice were injected simultaneously with sterile PBS/incomplete adjuvant. These six mice, which constituted group 2, were challenged with P. berghei 21 days after the booster immunization. Sera from immunized and control mice of both groups were prepared from 100 μl blood samples collected the same day as mosquito feeding (24 days after the first and booster immunizations).
On day 21 after the first and booster immunizations, mice were peritoneally inoculated with the P. berghei ANKA strain 2.34. On day 3 after P. berghei inoculation, parasitemia and gametocytemia were determined using Giemsa stained thin blood smears, and the mice were used for mosquito feeding. In group 1, parasitemia and gametocytemia ranged from 3.2% to 6.2% and from 6,500 to 11,500 gametocytes/μl for control mice, whereas they ranged from 3% to 7.4% and from 7,500 to 13,500 gametocytes/μl for immunized mice. In group 2, they ranged from 2% to 2.9% and from 2,000 to 4,000 gametocytes/μl for control mice, whereas they ranged from 1.5% to 3.6% and from 1,000 to 2,000 gametocytes/μl for immunized mice. Each mouse was placed onto a netted cage containing 50 starved 5-day-old An. gambiae females and feeding was carried out for 15 minutes at 21° C. After mosquito feeding, mice were bled to collect sera for ELISAs experiments and fully engorged mosquito females were maintained at 21° C., 80% humidity, until dissections. Rate of infection (number of infected mosquitoes/number of dissected mosquitoes) and intensity of infection (mean number of oocysts per positive midgut) were scored on day 9-11 after blood feeding by detection of oocysts on the mosquito midgut wall.
For the data reported in Table 7 below, An. gambiae were fed on control or immunized mice from group 1 (after primary immunization) and group 2 (after booster immunization). Proportion of infected mosquitoes (rate of infection) and mean number of oocysts per positive midgut (intensity of infection) were determined on day 9-11 post feeding. R: % reduction was calculated as R %=100×[1−(% infected mosquitoes fed on immunized mice/% infected mosquitoes fed on control mice)], using the mean value from each experimental group.

Series [2] has as its system P. berghei PbGFPCON ANKA strain. Briefly: Effect of CPBAg1 immunized mice sera on parasite development (GFP-expressing P. berghei). It counts as in vivo, Plasmodium berghei. As to the method: Intensity of infection (number of parasites per positive midgut) by P. berghei was scored by detection of GFP-expressing parasites in midguts of mosquitoes fed on control (black bars) and immunized mice (grey bars). Gametocytemia was determined just before feeding by Giemsa staining of thin smears and by GFP fluorescence detection. Mosquitoes were dissected at 3 h, 24 h, 48 h and 9 days after blood feeding to visualize zygotes (Zyg), ookinetes (Ook), young oocysts (Ooc 48 h) and mature oocysts (Ooc day 9), respectively. Geometric mean intensity for six immunized mice was plotted as % of that for six control mice set at 100%. The table indicates the geometric mean number of parasite per midgut at each parasite life stages.
To assess the effect of anti-CPBAg1 sera on parasite development, a new group of six mice was immunized as described above and six control mice were injected with PBS/adjuvant. […] On day 3 after P. berghei inoculation, gametocytemia were determined by Giemsa staining of thin blood smears and by GFP fluorescence detection. […] Intensity of infection was scored by counting the number of zygotes and ookinetes within the mosquito midgut content, and the number of oocysts on the midgut wall. GFP fluorescence was visualized using GFP filter settings with a Zeiss Axiovert 25 fluorescence microscope.

B1: recombinant CPBAg1 (Anopheles gambiae) (protein)
chain: GSYHEFELYNVRPETAEQLSVLLKWRNGQEIEVDFWDAPKVGRSARLMVTREDHKRVEEFLEQHDIEYDLVAEDVQELLNREQRRNVEHGRRLRRDSNSRATVNFEHFWTLDEIYEYLDELAVAYNGLVRVSEIGRTHEDRPIKAITISTRGAVDQTRPIVFMDGGIHAREWAGVMSVMYMIHEFVEHSDQYAEQLSNTDYVIVPVANPDGYVYTHEQNRLWRKNRSPGNVLCYGVDLNRNFPFQWDRTTSECTNNFAGHAASSENETKALIGLMDQYKAAIRMYLAVHTYGEMILWPWGYDFLHAPNEDDLQRLGERARDALVAAGGPEYEVGNSADILYTASGATDDYAYSLGVPYSYTLELTGGGSQGFDLPAAELARVTSQTFELLKVFGQHAGTLSVTS
As to B1, in series [1], the Km was determined as 2590 µM.

B2: CPBAg1: recombinant His-tagged An. gambiae carboxypeptidase B (SEQ ID NO: 2) from baculovirus/insect cells, used to immunize mice (protein, listed as Anopheles gambiae)
chain: MKRLTFVTGCLLALAFAKAGSYHEFELYNVRPETAEQLSVLLKWRNGQEIEVDFWDAPKVGRSARLMVTREDHKRVEEFLEQHDIEYDLVAEDVQELLNREQRRNVEHGRRLRRDSNSRATVNFEHFWTLDEIYEYLDELAVAYNGLVRVSEIGRTHEDRPIKAITISTRGAVDQTRPIVFMDGGIHAREWAGVMSVMYMIHEFVEHSDQYAEQLSNTDYVIVPVANPDGYVYTHEQNRLWRKNRSPGNVLCYGVDLNRNFPFQWDRTTSECTNNFAGHAASSENETKALIGLMDQYKAAIRMYLAVHTYGEMILWPWGYDFLHAPNEDDLQRLGERARDALVAAGGPEYEVGNSADILYTASGATDDYAYSLGVPYSYTLELTGGGSQGFDLPAAELARVTSQTFELLKVFGQHAGTLSVTS
modifications: His tag
In the case of B2, the “endpoint titer of specific anti-CPBAg1 antibodies” value with CPBAg1 (group 1: single injection of 20 μg in complete Freund's adjuvant, 24 days after immunization) is listed as ~12,150; with CPBAg1 (group 2: second injection on day 21) it was ~36,450. Further, the “Rate of infection % (number of dissected mosquitoes)” value with P. berghei (Group 1 (primary immunization), individual immunized mice Im 1-Im 8, day 9-11 post feeding) is 9.4 (32)* % and 0 (20)* % and 43.3 (30)* % and 31.2 (32)* % and 41.2 (17)* % and 38.8 (18)* % and 50 (30)* % and 10.5 (38)* %; in the series with P. berghei (Group 2 (booster immunization), individual immunized mice Im 9-Im 11, day 9-11 post feeding) it was 77.4 (31)* % and 26.6 (30)* % and 36.6 (30)* %; with P. berghei (Mean Group 1, immunized mice) it was 28.1 (217)* %; in the series on P. berghei (Mean Group 2, immunized mice), 47.2 (91)* %. The “Mean no. of oocysts (range)” value in the series on P. berghei (Group 1, individual immunized mice Im 1-Im 8) is 2.5 (1-5)* and 0* and 7.16 (1-56) and 3.7 (1-70) and 5.4 (1-27) and 5.8 (1-32) and 6.7 (1-117) and 3.3 (1-15); in the series with P. berghei (Group 2, individual immunized mice Im 9-Im 11), 23.7 (1-120) and 6.2 (3-10)* and 24.3 (6-100). Also, the “% of reduction R” value with P. berghei (Group 1) was 63% and 63.2%; in the series on P. berghei (Group 2), 51% and 50.6%. Also, the “Mean no. of oocysts” value in the series with P. berghei (Mean Group 1, immunized mice) is recorded as 5.3; in the series with P. berghei (Mean Group 2, immunized mice) it was 18.6*. The “reduction of mean infection intensity versus mosquitoes fed on control mice” value in series [2] (3 h PBM (zygotes)) is 40%; in series [2] (day 9 PBM (mature oocysts)), 65%.
